To fix the notation:
T1: Avo3 (yeast (endogenous in yeast cells), UniProt P40061 1-1430)
T1 sequence: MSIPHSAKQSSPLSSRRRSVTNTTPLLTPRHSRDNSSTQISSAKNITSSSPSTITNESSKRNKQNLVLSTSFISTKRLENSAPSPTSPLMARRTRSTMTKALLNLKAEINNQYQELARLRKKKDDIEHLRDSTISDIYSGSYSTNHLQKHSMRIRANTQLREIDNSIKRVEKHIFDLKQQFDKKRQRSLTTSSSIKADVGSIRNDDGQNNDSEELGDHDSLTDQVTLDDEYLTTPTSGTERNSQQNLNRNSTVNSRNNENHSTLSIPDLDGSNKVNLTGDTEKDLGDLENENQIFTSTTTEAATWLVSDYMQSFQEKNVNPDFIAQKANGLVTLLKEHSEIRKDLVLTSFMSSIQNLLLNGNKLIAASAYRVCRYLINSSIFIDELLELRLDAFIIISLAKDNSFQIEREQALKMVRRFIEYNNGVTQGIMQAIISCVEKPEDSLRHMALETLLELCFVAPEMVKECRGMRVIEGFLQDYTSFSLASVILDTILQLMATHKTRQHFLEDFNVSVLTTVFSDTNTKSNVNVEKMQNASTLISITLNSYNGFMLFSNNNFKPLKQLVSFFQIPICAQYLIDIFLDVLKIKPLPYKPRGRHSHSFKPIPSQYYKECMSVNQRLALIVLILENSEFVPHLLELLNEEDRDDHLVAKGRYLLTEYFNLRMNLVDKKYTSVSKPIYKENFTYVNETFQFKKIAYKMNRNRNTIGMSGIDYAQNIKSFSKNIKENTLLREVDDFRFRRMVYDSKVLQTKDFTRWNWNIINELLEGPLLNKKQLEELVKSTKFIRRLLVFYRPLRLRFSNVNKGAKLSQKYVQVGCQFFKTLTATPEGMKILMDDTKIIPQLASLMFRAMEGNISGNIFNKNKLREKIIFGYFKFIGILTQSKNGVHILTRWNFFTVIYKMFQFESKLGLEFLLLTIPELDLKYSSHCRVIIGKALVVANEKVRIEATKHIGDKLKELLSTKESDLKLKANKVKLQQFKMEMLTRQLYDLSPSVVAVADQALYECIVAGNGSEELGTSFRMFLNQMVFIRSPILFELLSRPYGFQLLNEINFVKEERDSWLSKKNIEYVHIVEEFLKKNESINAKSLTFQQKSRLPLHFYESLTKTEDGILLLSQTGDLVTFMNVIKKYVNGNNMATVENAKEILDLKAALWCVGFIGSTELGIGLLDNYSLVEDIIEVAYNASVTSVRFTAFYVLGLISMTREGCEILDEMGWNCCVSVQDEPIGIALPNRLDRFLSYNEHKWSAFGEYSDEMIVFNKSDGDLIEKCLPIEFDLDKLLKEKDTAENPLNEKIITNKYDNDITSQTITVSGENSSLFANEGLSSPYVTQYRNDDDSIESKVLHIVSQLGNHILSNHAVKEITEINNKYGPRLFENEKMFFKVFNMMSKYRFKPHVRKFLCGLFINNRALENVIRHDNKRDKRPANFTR

B1: Avo2 (natural protein)
chain: MLKEPSVRLREAIIEGNLLIVKRLLRRNPDLLTNIDSENGWSSLHYASYHGRYLICVYLIQLGHDKHELIKTFKGNTCVHLALMKGHEQTLHLLLQQFPRFINHRGENGRAPIHIACMNDYYQCLSLLIGVGADLWVMDTNGDTPLHVCLEYGSISCMKMLLNEGEVSLDDNVRDKGNWKPIDVAQTFEVGNIYSKVLKEVKKKGPPLGAGKKPSSFRTPILNAKATFEDGPSPVLSMNSPYSLYSNNSPLPVLPRRISTHTTSGNGGNRRSSITNPVFNPRKPTLSTDSFSSSSNSSSRLRVNSINVKTPVGVSPKKELVSESVRHSATPTSPHNNIALINRYLLPNKSNDNVRGDSQTATINDDGGGGNGGDATIGMGLRKDPDDENENKYKIKVNNGEPRRRVSLLNIPISKLRNSNNTRAED
B2: Lst8 (natural protein)
chain: MSVILVSAGYDHTIRFWEALTGVCSRTIQHSDSQVNRLEITNDKKLLATAGHQNVRLYDIRTTNPNPVASFEGHRGNVTSVSFQQDNRWMVTSSEDGTIKVWDVRSPSIPRNYKHNAPVNEVVIHPNQGELISCDRDGNIRIWDLGENQCTHQLTPEDDTSLQSLSMASDGSMLAAANTKGNCYVWEMPNHTDASHLKPVTKFRAHSTYITRILLSSDVKHLATCSADHTARVWSIDDDFKLETTLDGHQRWVWDCAFSADSAYLVTASSDHYVRLWDLSTREIVRQYGGHHKGAVCVALNDV
B3: Bit61 (natural protein)
chain: MTAEDILLRERTSTTTQRPVNSEQYLNVQLATAPVKNFQTTSEISRQTLVDTSNDDVYSIKNLKGSRNPISPSVSNVGFQSIFHTVDHPRSKVSVASNHSLRSNDNASAATSKSGSSQIGESHSVDTVECSNNLSKKLSSDAISITQKSLHSTPSGRYMKGKASGFFNRRNRAHTTISSDPASFLTDSSTLHNSSHSFRNVIKNFFQNKSHRHIGQDAIEPAIPNSLSKFLHSSYGRHKSPSQFIHTNAGQLVDSGTSVYSLNVNPSGVNPNTIVEDPLSGTDPASPNPVSMLHDLLRNLPSLEANYKHFNSQELTTLTNNIWNIFCSNVAELFRTQRIWKLRAKIENFNEVLEFYCILKTDPRVTHSGMNRIISDLKEFLVSSLYNLENQIVFNYSNEDTINNALKRLGVIWRIFYQEVYYDLAAVLLPLDQSIREDGNSTVLKSGNESRTHINGNYSIGFLLLMCFRDSIVLPCYENFVNSNDGISKSFQLYIFNQEEESNVTETDKLTLLQCFGILSTIQSNDRNQRIIEELLAGIRMSI
B4: Avo1 (natural protein)
chain: MDTVTVLNELRAQFLRVCPEKDQMKRIIKPYIPVDEFNTEQCLDSSIRELYMNSDGVSLLPELESPPVSKDFMENYASLGKMRIMRENEGQKGKANQNLIGAEKTERDEEETRNLQDKSAKNTLIVEENGTLRYNPLNSSASNSLLNDDDHTSGKHHKTSSKEDSYLNSSMEMQKKSSKRSSLPFVRIFKSRRDHSNTSGNKNVMNTTNTRAKSSTLHPPGARHNKKGSKFDMNFDFDENLEEEDDDDDDDEEGDDIHSQFFQLDDDFDAKGSGASPAHKGINGMSNNKNNTYTNNRNSISILDDRESSNGNIGSASRLKSHFPTSQKGKIFLTDNKNDGQKSDSLNANKGIHGDGSSASGNGSVSRDGLTETESNNISDMESYINEKDLDDLNFDTVTSNINKTVSDLGGHESTNDGTAVMNRDSKDSRSNSNEFNAQNRDRITPGSSYGKSLLGSEYSEERYSNNDSSTMESGEMSLDSDMQTNTIPSHSIPMSMQKYGIYHGDDDSTLNNVFDKAVLTMNSSRHPKERRDTVISGKEPTSLTSSNRKFSVSSNLTSTRSPLLRGHGRTSSTASSEHMKAPKVSDSVLHRARKSTLTLKQDHSQPSVPSSVHKSSKEGNILIEKTTDYLVSKPKASQLSNMFNKKKKRTNTNSVDVLEYFSFVCGDKVPNYESMGLEIYIQASKKYKRNSFTTKVRKSSTIFEVIGFALFLYSTEKKPDNFEEDGLTVEDISNPNNFSLKIVDEDGEPFEDNFGKLDRKSTIQSISDSEVVLCKVDDAEKSQNEIETPLPFETGGGLMDASTLDANSSHDTTDGTINQLSFYKPIIGNEDDIDKTNGSKIIDVTVYLYPNVNPKFNYTTISVLVTSHINDILVKYCKMKNMDPNEYALKVLGKNYILDLNDTVLRLDGINKVELISKKDARELHLEKMKPDLKKPVLPTIQSNDLTPLTLEPLNSYLKADAGGAVAAIPENTKVTSKAKKISTKYKLGLAKQHSSSSVASGSVSTAGGLANGNGFFKNKNSSKSSLHGTLQFHNINRSQSTMEHTPDTPNGVGDNFQDLFTGAYHKYKVWRRQQMSFINKHERTLAIDGDYIYIVPPEGRIHWHDNVKTKSLHISQVVLVKKSKRVPEHFKIFVRREGQDDIKRYYFEAVSGQECTEIVTRLQNLLSAYRMNHK

The target of assay [1] is T1, Avo3. Briefly: cryo-EM structure.
The target of assay [2] is B4. As to the kind of experiment: cryo-EM structure.

On to B1, for which the binding result in assay [1] was “binds”.

On to B2, for which the binding result in assay [2] is recorded as “binds”.

As to B3, the binding result in assay [1] is on record as “binds”.

Regarding B4, the binding result in assay [1] is “binds”.

These data come from publication doi:10.1101/2025.07.02.662585 (bioRxiv, 2025).
